Data published in the supplement of paper PMC9112550, “Optimization of the antimicrobial peptide Bac7 by deep mutational scanning” (BMC Biology, 2022).

Tested on: Escherichia coli TOP10
Test: shrunken log2 fold change of peptide-encoding DNA abundance (4.5 h post-induction vs induction); higher = less antimicrobial activity (less host growth inhibition)
Conditions: time post-induction: 4.5 h; library: site-saturation at positions 5, 18, 19, 20
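Also: peptides expressed intracellularly from a pBAD plasmid library in pooled LB shake-flask culture, induced with 0.3% L-arabinose, DNA abundance read by NGS, three biological replicates, DESeq2 with apeglm shrinkage.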

Row | Sequence | shrunken log2 fold change
1 | RRIRSRPPRLPRPRPRPQKVPRP | -0.203
2 | RRIRGRPPRLPRPRPRPVLVPRP | 0.628
3 | RRIRCRPPRLPRPRPRPLKGPRP | -0.204
4 | RRIRRRPPRLPRPRPRPRQLPRP | 0.394
5 | RRIRQRPPRLPRPRPRPCRCPRP | -0.0134
6 | RRIRTRPPRLPRPRPRPQGVPRP | -0.0062
7 | RRIRCRPPRLPRPRPRPATEPRP | 0.309
8 | RRIRQRPPRLPRPRPRPIMNPRP | -1.23
9 | RRIRMRPPRLPRPRPRPNLNPRP | -0.0299
10 | RRIRVRPPRLPRPRPRPDQGPRP | 0.00375
11 | RRIRCRPPRLPRPRPRPWDPPRP | -0.211
12 | RRIRDRPPRLPRPRPRPVKIPRP | -0.101
13 | RRIRNRPPRLPRPRPRPEACPRP | 0.0475
14 | RRIRIRPPRLPRPRPRPAWLPRP | 0.272
15 | RRIRNRPPRLPRPRPRPMYDPRP | 0.0456
16 | RRIRVRPPRLPRPRPRPPGIPRP | 0.154
17 | RRIRIRPPRLPRPRPRPACHPRP | -0.12
18 | RRIRHRPPRLPRPRPRPHYSPRP | -0.142
19 | RRIRERPPRLPRPRPRPVLAPRP | 0.252
20 | RRIRPRPPRLPRPRPRPNAVPRP | 0.0397
21 | RRIRPRPPRLPRPRPRPHDIPRP | 0.152
22 | RRIRNRPPRLPRPRPRPYKDPRP | 0.0141
23 | RRIRSRPPRLPRPRPRPFAGPRP | -0.00284

Row | Sequence | shrunken log2 fold change
24 | RRIRSRPPRLPRPRPRPAHYPRP | -0.131
25 | RRIRQRPPRLPRPRPRPKLIPRP | -0.0954
26 | RRIRTRPPRLPRPRPRPDKDPRP | -0.0511
27 | RRIRIRPPRLPRPRPRPSFIPRP | -1.24
28 | RRIRYRPPRLPRPRPRPFQCPRP | -0.157
29 | RRIRVRPPRLPRPRPRPMQFPRP | 0.0422
30 | RRIRPRPPRLPRPRPRPMLGPRP | 0.252
31 | RRIRHRPPRLPRPRPRPFLTPRP | -0.217
32 | RRIRPRPPRLPRPRPRPSQRPRP | 0.229
33 | RRIRHRPPRLPRPRPRPEPPPRP | 0.545
34 | RRIRCRPPRLPRPRPRPLTGPRP | -0.994
35 | RRIRFRPPRLPRPRPRPRVKPRP | -0.154
36 | RRIRSRPPRLPRPRPRPQIGPRP | -1.62
37 | RRIRSRPPRLPRPRPRPALVPRP | 0.398
38 | RRIRERPPRLPRPRPRPQYTPRP | -1.16
39 | RRIRMRPPRLPRPRPRPSYRPRP | -0.0836
40 | RRIRHRPPRLPRPRPRPVHSPRP | 0.0246
41 | RRIRHRPPRLPRPRPRPYHRPRP | -0.00968
42 | RRIRPRPPRLPRPRPRPVYMPRP | -1.1
43 | RRIRQRPPRLPRPRPRPYDSPRP | -0.00804
44 | RRIRFRPPRLPRPRPRPEVAPRP | -0.088
45 | RRIRMRPPRLPRPRPRPPNEPRP | 0.2
46 | RRIRDRPPRLPRPRPRPPPTPRP | 0.973

Row | Sequence | shrunken log2 fold change
47 | RRIRYRPPRLPRPRPRPSAHPRP | -0.117
48 | RRIRNRPPRLPRPRPRPWLVPRP | -0.151
49 | RRIRTRPPRLPRPRPRPWHKPRP | -0.168
50 | RRIRMRPPRLPRPRPRPMQRPRP | 0.556
51 | RRIRCRPPRLPRPRPRPTSQPRP | 0.00813
52 | RRIRTRPPRLPRPRPRPWRLPRP | -0.127
53 | RRIRHRPPRLPRPRPRPKFRPRP | -0.317
54 | RRIRFRPPRLPRPRPRPISYPRP | -0.778
55 | RRIRLRPPRLPRPRPRPLGTPRP | 0.18
56 | RRIRMRPPRLPRPRPRPHITPRP | -0.374
57 | RRIRCRPPRLPRPRPRPRLGPRP | 0.485
58 | RRIRMRPPRLPRPRPRPHLPPRP | -0.00448
59 | RRIRARPPRLPRPRPRPASTPRP | 0.318
60 | RRIRYRPPRLPRPRPRPKDQPRP | -0.48
61 | RRIRLRPPRLPRPRPRPFMWPRP | -0.121
62 | RRIRGRPPRLPRPRPRPLQAPRP | 1.86
63 | RRIRERPPRLPRPRPRPNAAPRP | 0.163
64 | RRIRARPPRLPRPRPRPAVIPRP | -0.178
65 | RRIRKRPPRLPRPRPRPKREPRP | 0.393
66 | RRIRVRPPRLPRPRPRPERLPRP | -0.0657
67 | RRIRLRPPRLPRPRPRPRLNPRP | -0.0854
68 | RRIRGRPPRLPRPRPRPHEVPRP | 0.431
69 | RRIRDRPPRLPRPRPRPTPNPRP | 0.272

Row | Sequence | shrunken log2 fold change
70 | RRIRIRPPRLPRPRPRPAPAPRP | 0.31
71 | RRIRFRPPRLPRPRPRPERPPRP | 0.415
72 | RRIRYRPPRLPRPRPRPDWYPRP | -0.968
73 | RRIRKRPPRLPRPRPRPFLRPRP | 0.13
74 | RRIRNRPPRLPRPRPRPDHEPRP | -0.039
75 | RRIRKRPPRLPRPRPRPKCAPRP | 0.283
76 | RRIRERPPRLPRPRPRPSCKPRP | -0.277
77 | RRIRQRPPRLPRPRPRPSFEPRP | -0.213
78 | RRIRLRPPRLPRPRPRPRGCPRP | 0.246
79 | RRIRMRPPRLPRPRPRPANFPRP | -0.000946
80 | RRIRMRPPRLPRPRPRPIHCPRP | -0.105
81 | RRIRSRPPRLPRPRPRPLTHPRP | -0.569
82 | RRIRARPPRLPRPRPRPQFWPRP | 0.148
83 | RRIRERPPRLPRPRPRPGILPRP | -0.304
84 | RRIRMRPPRLPRPRPRPGLWPRP | 1.1
85 | RRIRCRPPRLPRPRPRPINHPRP | -0.607
86 | RRIRNRPPRLPRPRPRPMKFPRP | -0.000903
87 | RRIRLRPPRLPRPRPRPPSDPRP | 0.432
88 | RRIRMRPPRLPRPRPRPHWCPRP | -0.153
89 | RRIRGRPPRLPRPRPRPNLKPRP | 0.189
90 | RRIRPRPPRLPRPRPRPGPEPRP | 0.213
91 | RRIRRRPPRLPRPRPRPWEMPRP | -0.171
